{"source": "paper PMC10447908", "about": "“Customizably designed multibodies neutralize SARS-CoV-2 in a variant-insensitive manner” (Frontiers in Immunology, 2023)", "binders": {"B1": {"name": "Binder C (VHH)", "VHH": "QVQLVESGGGLVQPGGSLRLSCAASGITLDYYAIGWFRQAPGKEREGVSRIRSSDGSTNYADSVKGRFTMSRDNAKNTVYLQMNSLKPEDTAVYYCAYGPLTKYGSSWYWPYEYDYWGQGTQVTVSS", "notes": "not shown: His6, N-terminal, cleaved; SUMO, N-terminal, cleaved"}}, "molecular_target": "T1, SARS-CoV-2 Spike receptor binding domain, Wuhan (ancestral) variant (SARS-CoV-2, UniProt P0DTC2, biotinylated in vitro when needed)", "T1 construct": "also called Wuhan RBD; soluble (monomeric) RBD", "assay": "flow cytometry on cells; cell-surface binding inhibition: 36 nM RBD preincubated with 1 to 1088 nM of the molecule for 1 h at 37°C in PBS, 1% BSA, 2 mM EDTA, then 1x10^5 HEK-293T-hACE2 cells for 1 h on ice; RBD on cells revealed with Strep-Tactin-Dye649; blocker and RBD meet in solution", "details": "both partners purified"}
{"binder": "B1", "values": [{"measurement": "binding result", "value": "binds"}]}
